Assay: protease stability score; higher = more stable; yeast display proteolysis, trypsin and chymotrypsin;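 further: relative to predicted unfolded state with 0 unfolded-like and 1 meaning tenfold more protease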

| Sequence | protease stability score |
| --- | --- |
| DEKEEHLDELARLFWEVHHTGNEEVFEELFDPRMRLIFNGQQYIGMEKAVKIESRVKNITVRLETYRVINGRIEIHENWRQGEKEIKFEIRIVVIDGVAKEMERIFREK | 1.09 |
| DEREKHAKDFFDILLHLLLTGDWDKIIRMADPDVKLEIGDKRFHGMEHISETWLKRFTRLGVDHQHFHLHTVKFINGVATIHGRQHLHVGDKTIDLEVIIYVEKIDGRWILNNIEVR | 1.11 |
| HEDERAFEHFIELLMHTLRTGDEELWKHLADPNYLLDVGDKHFIGRERVVEWIRHIRIKDVRVEHYKIQGDKAEIHTRVDGNIDGKELNLHSRFKMHKVDGRWLLEEVEFR | 2.22 |
| SEDERDAQHFIELWDEAMRTGDFELLHYLMDPHTRILVNGRNLHGWEIYHKLLHEIRVKDSRSEDSRVIGDKVRVDQRVHGIVNGVETDLKTHLITEKFNGRWHYRSVEIK | -0.189 |
| DEKSDIYHQALRLWIDTMVTGDENLYERLLDPHVRVEIGDKEIHGRERVSEFFKRFAEHLGVDHVELHDFRYQGDYVRLRISIEYNGQHLDTDLIITKINGRWYIHSEKYK | 1.26 |
| SEEHELSHHWADLMFHWMLTGDEEMFEHFADPHVRLHVNGKDIHGREKFVEWLREELEKIKNLTYRLHDVEIQGDKVHLTVKVDVNGKRLDTRVHIDLVNGRVRSIEIRHR | 1.42 |
| DEDERAYEESVRTFLENNLTGNEEILHRLMDPHVKTDYGDKRYHGMEEATEMIRRLGVNHFHLNSVHHQGDKVHLHGRVIVNGREFQVHIESKKINGRWVIRKVVID | 1.27 |
| TEERKEMEEAWDRFVHNIHTGDEHSLLKLVDPHVRVQIGDKEVHGWRYLLQLLRDIITKVKNLTVDLRIEDERMIGNYIELEVILVINFENRYHFIRYHVRHEKVDGKWHLKEISRD | 1.08 |
| DEDEEAARHFLEQWLEALLTGDEETLTKLLDPHTRLIVDGQELVGRELWLEFFKRIKNMKIHRTEIRHTTSIGDKITLNIHVDVEVDGKRRRFDVQYVILKVNGRWLLKQVNNH | 0.498 |
| DEREEEAERILREWIKAVETGDFEQIMRYLDPNVRIIVNGKHHHGREILVHLIIRFLRELGADHITFHHDRIHLYDGVLVIDIHLEIRQGDKRYEFHEEIYIIKVNGRWIVRRVIIR | 2.8 |
| SEEEEEMRRWFEILIRAIRTGDEHVLKRLIDPDAQEDVNGKRIHGMEDMSRLLSEMRIKSWEIRRSHFVGNKIELDGHRRGHVNGRDIDDHVIIHILKIDGKWTLHRVEVS | 2.12 |
| DKEEEDSDEALKWFFDVLRTGDERLIREMLDPDARIEIDGVPSHGRESVEEFVHRIRNMKVDDFQVKRIDVQGDKVRLDTHFDGTINGVRRQVDLTIIARKINGRWFNESISIK | 1.91 |
| DDKDEKSKKWAEMFIHLIETGDEERIRELLDPDVRVEIGDKEIHGRERWLEWERRMRDKYKNLRFRIEHHHIQGDKVHIRTEREIGDKSLDIRIEIIIYNGRAKEFHIDIR | 2.87 |
| TEDEEKSHEFVHRLSHSVMTGDWKDIKRLADPNMKSRVNGREIHGWDKTKRMLDEEEEQLGVSRFEFDLKRVDTQGDKLFIDMRMKVNGRTLEVTYHVEKVNGRWLVTEFHIL | 0.555 |
| SSEEKRDKDAVELFLKILHTGNFELFRELFDPNTRWEYGDKELIGMELIVTWWFEFVRDRGVEVELHRIDRINGRVVLETTMRIGDKQTSTHVHVIVINGVFHEVRFRFH | 1.29 |
| DDKEKHVKRISEILLHTWHTGNEESLNRMFDPEVKVYWNGRELVGRENSSKHLAEEKRRADHVEIEIKDVHVIGNKMIIDGTLRRHIGDYQDESEVHIHIEVVDGRIKRLELRIK | 1.1 |
| DDRERESKEAVEFFLHAVDTGDFDRIREMLDPHMRVEIDGQEFHGRERALDLIHKEMFDLGVDRIRIEIHDMELVDGRVEVDVHVDVNGRIIRSEYIMKKIDGRWRIHSIKRR | 1.98 |
| DEDMKIASHVFHLIMHILHTGDEDSLKELADPDYRWLFNGVSNVGREESVRRLEEIRLEMKDTKTRSAKIYDGRIELHSHVRGNLNVNGVEIEHSVRSRLFVSKVDGKWLVEHIEIG | -0.045 |

| Sequence | protease stability score |
| --- | --- |
| SELERDAEMAFKIYKHNIETGNEEELDKLVDPNVRLEAENHSTHGREDWYNLMRHFGVKHTDVKDFRIQGDKIHLHGVLHFNGRTFKITLYVHKFDGRWHIKSVEVH | 0.364 |
| DEDTKLMEEVIRLHMELLKTGNWDELLHMLDPNAKFEAEGRDKHGWHNFLREYKHFYEELGFKHSRVHHVRVQGDKLEMDLRINVGDKEFETNLEVLKVNGRWLIKFVRID | 1.58 |
| SEDDELVTRMFKVWLHDWITGNEEQIHRMVDPDYRLEIGDKDIHGMEASLHWLRKIKNIQFRFHLEHVDVVNGKAKSEGRYIEEFEGVKIDRDVELYLHIVDGRIKSMSIHKR | 1.29 |
| DEEEKLLEFLVEHIATILVTGDEDRWLTLADPDVKVIIDGRTFIGWEFLEELIHQIRIHRMRIRHFSFVNGRLVFIFSIDGTIGDKRDEHDTRYEMIKIDGRWRLKRVEIR | 1.48 |
| DEDTEKVRWFFEVLKRASDTGNEEEELKLLDPNARYIFNGKNDHGRRAWERFKKNLGVKHVEIHPRDFDVVDGRIHIEIELRIHVDGREIRFDIEIIVEKFNGRWYLRSIHID | 0.376 |
| SEDIKEIKDILRTMYEAFITGDWRTVAKLFDPHVRIEYDGVRLHGREHVEHFLRHLRERVEWHHIEDTQEQGDYIELHGRTILNIEIGDKRDRRDSHFILMMVKVDGRWLIHRIIIR | 2.21 |
| DEDKELAIRMIRLLMHALHTGDEDLLDELLDPNTKVDVDGQDLVGREQFLRDLRHIRIEIKDSHIHDVRVQGDKVRSHSYINGRREYDGVRLETEFRVLFIIRKVNGKWIFKSIHSL | 1.3 |
| SEEHELAESMAEEVLRSFLTGDEDTLHELFDPHVRVNYNGKVFHGREKLIKILNELRWDHTTVKRIEIRYYGDKVEVVLHVEIHFEINGQRISHRVDIIIIAEKVNGRWRVRDFIYIEK | 1.35 |
| DEDEEMMEHLIRILVEVLKTGDWKELLKLADPHVRQDVNGVDIHGREDVSRRLANQAKELRLELHLQDVKVWNGRVDFDSRLHINQGEKYVQLHVRIITEKIDGRWRITEIHVR | 1.62 |
| SEDDRENHRFMEQFLHDWETGDEDSLRKLADPDVKVRINGVDLHGWSFFEDYLRRVDHIDDFKIDHVEIQGDKIKIHGQQHGRIDGRRDTYKVQNFFIKIDGKWRLKMVINR | 1.34 |
| TERDELMKRFAHIFYHWLETGDEESIKKMLDPDTLSIVDGVNLHGRDEHSRWHVELHENLGIDQIHYRLRRVEVQGDKARIDGEEEINGKHVKLRIELEVINGRIKDIRVSVR | 1.45 |
| DEEEENSRRAIEIVLQHMETGDEKTLEELVDPHVKLHYGDKTSHGRHHVAHLIMRLGVKHSRVEHVDSQGDKVFFFTRMRIGDKHFDTRVILLKVDGKWQIHELKFD | 1.96 |
| SEYEEEVRRAMELEIRSIKTGNEELIKHLMDPNVRLVIGDKNFHGREAIEVFVERFDYIHEVEITSIDLQGDFVNMRGVLDGRINGQRLRTKVHYISRKVDGRWFSESIHIR | 0.66 |
| SEKDERVHELLRHVEHALRTGDWEEMVKLADPHVRVIFNGKTLHGREMMNRFWEHFGADHIRIRDEDDYNGVVIVHIETVVGDKHHHVHIISEKIDGKWTMRELSIE | 0.933 |
| SHLEEDAEKALRHLIHLFYTGDEKTLHNLADPNTRFRIGDKEYHGMEYILEFWLHIRLEDFDVERMSVQGDKIHIDSRMTLHFNGRSREIEVHILLLKYNGVWRIEEVRIH | 1.24 |
| SEDHEFVRFIIEQLLHDLFTGDWRRLLKLFDPNAMIEVGDKTLHGMENIYRWHEEHYERLGLSNVEIHILIRKIHIQGDKVHIDGLLRLHFNGRDTEIHVRLHALKIDGKWQLTRVQHD | 1.89 |
| SEEEEKIKKLHTDWLHLLLTGDEDRLKQLMDPHAKISIEQGDFHLDLHGREDIIEFYWEERHRIDHLDIRVRHIEVWNGKIITKEENRIDFNGRKHVTEVDLEIEIVDGKFRSLHIRIH | 1.02 |
| SEIEKLLIDWLEHMVRAHKTGDWQNLLNMLDPHTRLNINGQHNIGRDKLTHLIREEEDRFGVDNIELHLHLEDIDIQGEKVNMKVQRHVNVNGREYTDEVELIIVKINGRWLLESIHVH | 0.932 |
